Consider two substances from patent US20170129921A1.

The term Ki denotes a measure of affinity in units of concentration, obtained from inhibition or displacement. Read a low Ki as tighter binding.

Bounds are passed on as bounds.

The test addresses Human C5a receptor 2 (human) (UniProt Q9P296). Description: 125I-C5a displacement, SPA on Flp-In CHO-C5a2 membranes.

Human C5a receptor 2 (human), sequence (Q9P296 whole entry): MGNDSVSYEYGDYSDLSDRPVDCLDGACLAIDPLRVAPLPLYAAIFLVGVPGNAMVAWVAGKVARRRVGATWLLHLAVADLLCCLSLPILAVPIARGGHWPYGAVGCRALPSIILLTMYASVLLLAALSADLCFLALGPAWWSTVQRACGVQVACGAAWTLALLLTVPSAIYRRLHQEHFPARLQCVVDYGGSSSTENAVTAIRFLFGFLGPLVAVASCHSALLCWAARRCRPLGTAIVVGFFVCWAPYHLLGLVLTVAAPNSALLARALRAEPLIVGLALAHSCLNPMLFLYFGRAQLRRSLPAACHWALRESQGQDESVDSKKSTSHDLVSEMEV
Human isolated C3a, P01024 672-748 (ligand; other documents disagree on this pair), sequence (P01024 672-748): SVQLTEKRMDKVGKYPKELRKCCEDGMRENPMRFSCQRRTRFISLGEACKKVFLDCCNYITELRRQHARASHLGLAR
Human isolated C3a-des Arg, P01024 672-747 (ligand; other documents disagree on this pair), sequence (P01024 672-747 limits assumed): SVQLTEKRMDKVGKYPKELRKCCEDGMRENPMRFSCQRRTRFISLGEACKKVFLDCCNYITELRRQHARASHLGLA

On to “Human isolated C3a, P01024 672-748 (ligand; other documents disagree on this pair)”, for which the Ki was > 1000 nM.

“Human isolated C3a-des Arg, P01024 672-747 (ligand; other documents disagree on this pair)”: the Ki is > 1000 nM.
